This note sets out measurements from publication PMC12871931, “The importin‐alpha superfamily engages in ethylene signaling by shuttling [sequence] INSENSITIVE 2 from the endoplasmic reticulum to the nucleus” (The Febs Journal, 2025).

The assay concerns N. benthamiana epidermal leaf cells. Nature of the assay: Confocal fluorescence microscopy, subcellular localization. The following applies: Cerulean fusion, transiently transformed N. benthamiana epidermal leaf cells. It is filed as cell-based. As to the method: A modified version of a previously described procedure was used for the transient transformation of N. benthamiana. An overnight culture of agrobacteria was inoculated in DYT and incubated at 28°C one day before infiltration. Bacteria were then centrifuged at 4000 g and resuspended in infiltration medium (5% (w/v) Saccharose; 0.01% (w/v) MgSO4; 0.01% (w/v) Glucose; Acetosyringone 450 μM) to an OD600 of 0.4–0.8. Resuspended bacteria were kept on ice for 1–2 h prior to infiltration. For co‐infiltration, bacteria solutions were mixed in equal quantities, and Agrobacterium strain GV3101:p19 expressing the p19 silencing inhibitor was added to each mix. Infiltration of the bacteria solution was performed with a 1 mL syringe onto the abaxial side of 3‐ to 4‐week‐old plants. Plants were kept under continuous light before microscopy analysis. For ß‐estradiol inducible constructs, plants were sprayed on the abaxial side of infiltrated leaves with an estradiol solution (ß‐estradiol 20 μM; Tween‐20 0.1% (w/v)) prior to imaging.
For fluorescence imaging, a Zeiss LSM 780 confocal microscope (40× water immersion objective, Zeiss C‐PlanApo, NA 1.2) was used. YFP was excited at 514 nm and Cerulean at 458 nm. Signal recording of each fluorophore was done within its maximum emission peak while avoiding auto‐fluorescence above 650 nm. […]

B1: EIN2C^479–1294: C‐terminal part of EIN2 fused to Cerulean (CER), FRET donor (protein)
chain: NALSYPSVQEEEIERTETRRNEDESIVRLESRVKDQLDTTSVTSSVYDLPENILMTDQEIRSSPPEERELDVKYSTSQVSSLKEDSDVKEQSVLQSTVVNEVSDKDLIVETKMAKIEPMSPVEKIVSMENNSKFIEKDVEGVSWETEEATKAAPTSNFTVGSDGPPSFRSLSGEGGSGTGSLSRLQGLGRAARRHLSAILDEFWGHLYDFHGQLVAEARAKKLDQLFGTDQKSASSMKADSFGKDISSGYCMSPTAKGMDSQMTSSLYDSLKQQRTPGSIDSLYGLQRGSSPSPLVNRMQMLGAYGNTTNNNNAYELSERRYSSLRAPSSSEGWEHQQPATVHGYQMKSYVDNLAKERLEALQSRGEIPTSRSMALGTLSYTQQLALALKQKSQNGLTPGPAPGFENFAGSRSISRQSERSYYGVPSSGNTDTVGAAVANEKKYSSMPDISGLSMSARNMHLPNNKSGYWDPSSGGGGYGASYGRLSNESSLYSNLGSRVGVPSTYDDISQSRGGYRDAYSLPQSATTGTGSLWSRQPFEQFGVAERNGAVGEELRNRSNPINIDNNASSNVDAEAKLLQSFRHCILKLIKLEGSEWLFGQSDGVDEELIDRVAAREKFIYEAEAREINQVGHMGEPLISSVPNCGDGCVWRADLIVSFGVWCIHRVLDLSLMESRPELWGKYTYVLNRLQGVIDPAFSKLRTPMTPCFCLQIPASHQRASPTSANGMLPPAAKPAKGKCTTAVTLLDLIKDVEMAISCRKGRTGTAAGDVAFPKGKENLASVLKRYKRRLSNKPVGMNQDGPGSRKNVTAYGSLG
modifications: left off: Cerulean, end not stated, kept
notes: C‐terminal part of EIN2 fused to Cerulean (CER), FRET donor
On to B1, for which the subcellular localization result is “localized in the nucleus, ER, and cytoplasm”.
